Measurements taken from paper PMC7953826 (Nature cell biology, 2020).

Molecular target: actin (rabbit skeletal muscle G-actin, polymerised to F-actin) (rabbit, UniProt P68135 1-377)
Assay: co-sedimentation

- Kd: 190 ± 30 nM
B1: Drosophila dynamin shibire (Shi) (enzyme)
chain: MDSLITIVNKLQDAFTSLGVHMQLDLPQIAVVGGQSAGKSSVLENFVGKDFLPRGSGIVTRRPLILQLINGVTEYGEFLHIKGKKFSSFDEIRKEIEDETDRVTGSNKGISNIPINLRVYSPHVLNLTLIDLPGLTKVAIGDQPVDIEQQIKQMIFQFIRKETCLILAVTPANTDLANSDALKLAKEVDPQGVRTIGVITKLDLMDEGTDARDILENKLLPLRRGYIGVVNRSQKDIEGRKDIHQALAAERKFFLSHPSYRHMADRLGTPYLQRVLNQQLTNHIRDTLPGLRDKLQKQMLTLEKEVEEFKHFQPGDASIKTKAMLQMIQQLQSDFERTIEGSGSALVNTNELSGGAKINRIFHERLRFEIVKMACDEKELRREISFAIRNIHGIRVGLFTPDMAFEAIVKRQIALLKEPVIKCVDLVVQELSVVVRMCTAKMSRYPRLREETERIITTHVRQREHSCKEQILLLIDFELAYMNTNHEDFIGFANAQNKSENANKTGTRQLGNQVIRKGHMVIQNLGIMKGGSRPYWFVLTSESISWYKDEDEKEKKFMLPLDGLKLRDIEQGFMSMSRRVTFALFSPDGRNVYKDYKQLELSCETVEDVESWKASFLRAGVYPEKQETQENGDESASEESSSDPQLERQVETIRNLVDSYMKIVTKTTRDMVPKAIMMLIINNAKDFINGELLAHLYASGDQAQMMEESAESATRREEMLRMYRACKDALQIIGDVSMATVSSPLPPPVKNDWLPSGLDNPRLSPPSPGGVRGKPGPPAQSSLGGRNPPLPPSTGRPAPAIPNRPGGGAPPLPGGRPGGSLPPPMLPSRVSGAVGGAIVQQSGANRYVPESMRGQVNQAVGQAAINELSNAFSSRFK
